PMC3125984 (Journal of molecular biology, 2011)
Where two headings read alike, the source gives them in different places.

T1: Mss116 core (Ser73-Tyr597) (Saccharomyces cerevisiae, UniProt P15424 73-597)
T1 sequence: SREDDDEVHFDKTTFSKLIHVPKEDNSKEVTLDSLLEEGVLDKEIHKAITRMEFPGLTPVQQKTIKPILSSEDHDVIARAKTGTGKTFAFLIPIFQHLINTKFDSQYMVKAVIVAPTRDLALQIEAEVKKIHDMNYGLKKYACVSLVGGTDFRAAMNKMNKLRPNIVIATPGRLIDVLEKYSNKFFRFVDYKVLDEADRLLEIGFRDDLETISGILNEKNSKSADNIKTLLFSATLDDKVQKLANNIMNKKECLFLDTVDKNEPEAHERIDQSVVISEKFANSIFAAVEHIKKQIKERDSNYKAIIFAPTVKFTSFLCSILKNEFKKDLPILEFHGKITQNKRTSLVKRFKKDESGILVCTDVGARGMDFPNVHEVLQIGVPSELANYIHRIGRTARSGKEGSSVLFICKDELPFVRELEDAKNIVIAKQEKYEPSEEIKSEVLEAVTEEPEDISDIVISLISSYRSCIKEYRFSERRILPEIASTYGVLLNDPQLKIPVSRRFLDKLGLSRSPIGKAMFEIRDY

B1: 28-mer hairpin RNA (structured_RNA)
RNA: GCCUCGCUGCCCUUCGGGGCAGCGAGGC
B2: Mss116 (truncated construct, Ser73 - Tyr597) (domain or fragment, Saccharomyces cerevisiae, UniProt P15424 73-597, looked up)
chain: T1 sequence

How the values were obtained:
[1] = target: T1, Mss116 core (Ser73-Tyr597); experiment: FCS
[2] = target: T1, Mss116 core (Ser73-Tyr597); experiment: FCS; remark: listed apart in the source
[3] = target: the molecule itself; experiment: fluorescence correlation spectroscopy

Binder | Kd [1] [nM] | Kd [2] [nM] | binding result [3]
B1 | 117 ± 21 | 122 ± 22 | –
B2 | – | – | binds
